Consider one molecule from patent US9766245B2, “Method of detecting cancer based on glycan biomarkers” (California Institute of Technology, priority 2013, dated 2017).

“Also recorded” adds a separate entry of the source.

In the assay the test system is glycosylated synapsin I. The experiment in a line: Lectin affinity chromatography with UEAI. The assay is classed as binding, rat. The conditions noted are these: olfactory bulb lysate (500 μg), Western blotting. On the procedure: Lectin Affinity Chromatography with UEAI.
UEAI lectin conjugated to agarose (Vector Laboratories) or control protein A conjugated to agarose (Vector Laboratories) was packed into a minicolumn (50 μL bed volume; Bio-Rad), and the columns were run in parallel. The resin was equilibrated with 10 column volumes of lectin binding buffer (100 mM Tris pH 7.5, 150 mM NaCl, 1 mM CaCl2, 1 mM MgCl2, 0.5% NP-40, and 0.2% sodium deoxycholate supplemented with EDTA-free Complete™ protease inhibitors). Olfactory bulb tissue from P3 rat pups was lysed in lectin binding buffer by sonication on ice. The lysate was clarified by centrifugation at 12000×g for 10 min, and the total protein concentration was determined using the BCA protein assay (Pierce). Lysate (500 μg) was bound batch-wise with gentle end-over-end mixing at rt for 4 h. The agarose was then allowed to settle, and the flow-through was passed over the column three additional times. The columns were washed with 40 column volumes of lectin binding buffer, followed by 10 column volumes of lectin binding buffer lacking detergent. […] Following concentration, samples were boiled in 1× sample buffer (35 μL of 200 mM Tris pH 6.8, 400 mM DTT, 8% SDS, 0.2% bromophenol blue, and 40% glycerol) and analyzed by SDS-PAGE and western blotting as described above. Synapsin I was detected using mouse anti-synapsin I ascites (Synaptic Systems) at 0.1 μg/mL.
On the technique in general: In western blotting, separated proteins are transferred to a membrane and probed.

B1: UEAI: lectin conjugated to agarose used for affinity chromatography (protein)
chain: SDDLSFKFKNFSQNGKDLSFQGDASVIETGVLQLNKVGNNLPDETGGIARYIAPIHIWNCNTGEVASFITSFSFFMETSANPKAATDGLTFFLAPPDSPLRRAGGYFGLFEDTKDNDSSYQTVAVEFDTIGSPVNFDDPGFPHIGIDVNRVKSINAERWNKRYGLNNVANVEIIYEASSKTLTASLTYPSDQTSISVTSIVDLKEILPEWVSVGFSGGTYIGRQATHEVLNWYFTSNLINTNS
B1: the “capture and detection of glycosylated synapsin I” value is “failed to pull-down and detect glycosylated synapsin I; also recorded: failed to capture and detect glycosylated synapsin I”.
